# B1: t4LHypD (trans-4-hydroxy-L-proline dehydratase, GRE Cluster 15) (Clostridioides difficile) (protein)
# chain: MARGTFERTKKLREESINAEPHISIERAVLMTEAYKKYEGSVEIPVLRALSFKHYIENRTLSINDGELIVGEKGDSPNGAPTYPEICCHTMEDLEVMHNRDIINFSVSEEARKIHKEEIIPFWKKRQTRDKIINAMTPEWLAAYEAGMFTEFMEQRAPGHTVCGDTIYKKGFLDLKKDIEARLKELDFLNDLDAYNKKADLEAMAIACDAMVILGKRYAEKARQMAEEETDEAKKKDLLLIAETCDVVPAHKPETYHQAIQMYWFVHIGVTTELNIWDAFTPGRLDQHLNPFYERDVENGILDRDRAQELLECLWVKFNNQPAPPKVGITLKESSTYTDFANINTGGINPDGQDGVNEVSYIILDVMDEMKLIQPSSNVQISKKTPQKFLKRACEISRKGWGQPAFYNTEAIVQELMEAGKTIEDARLGGTSGCVETGCFGKEAYVLTGYMNIPKILELTLNNGYDPISKKQIGIETGDPRNFQSYEELFEAFKKQLHYMIDIKIEGNAVIENICAKHMPCPLMSTIVDDCIEKGKDYQRGGARYNTRYIQGVGIGTITDSLTAIKYNVFDKKKFDMDTLLKALDANFEGYEAILNLVSNKTPKYGNDDDYADEIMQEIFNAYYNEVTGRPTVCGGEYRVDMLPTTCHIYFGEIMGASPNGRLCAKPVSEGISPEKGGDTNGPTAVIKSCAKMDHIKTGGTLLNQRFAPSVVQGEKGLDNMANLVRAYFNMDGHHIQFNVFDKNVLLEAQKNPQDYKDLIVRVAGYSDHFNNLSRTLQDEIIGRTEQTF
# B2: PD (propanediol dehydratase, GRE Cluster 16) (Roseburia inulinivorans) (protein)
# chain: MGNYDSTPIAKSDRIKRLVDHLYAKMPEIEAARAELITESFKATEGQPVVMRKARAFEHILKNLPIIIRPEELIVGSTTIAPRGCQTYPEFSYEWLEAEFETVETRSADPFYISEETKKRLLAADAYWKGKTTSELATSYMAPETLRAMKHNFFTPGNYFYNGVGHVTVQYETVLAIGLNGVKEKVRKEMENCHFGDADYSTKMCFLESILISCDAVITYANRYAKMAEEMAEKETDAARRQELLTIARVCKNVPEFPAESFQEACQSFWFIQQVLQIESSGHSISPGRFDQYMYPYYEKDLKEGSLTREYAQELIDCIWVKLNDLNKCRDAASAEGFAGYSLFQNLIVGGQTVQGRDATNDLSFMCITASEHVFLPMPSLSIRVWHGSSKALLMRAAELTRTGIGLPAYYNDEVIIPALVHRGATMDEARNYNIIGCVEPQVPGKTDGWHDAAFFNMCRPLEMVFSNGYDNGEIASIQTGNVESFQSFDEFMEAYRKQMLYNIELMVNADNAIDYAHAKLAPLPFESCLVDDCIKRGMSAQEGGAIYNFTGPQGFGIANVADSLYTIKKLVFEEKRITMGELKKALEMNYGKGLDATTAGDIAMQVAKGLKDAGQEVGPDVIANTIRQVLEMELPEDVRKRYEEIHEMILELPKYGNDIDEVDELAREAAYFYTRPLETFKNPRGGMYQAGLYPVSANVPLGAQTGATPDGRLAHTPVADGVGPTSGFDISGPTASCNSVAKLDHAIASNGTLFNMKMHPTAMAGEKGLESFISLIRGYFDQQGMHMQFNVVDRATLLDAQAHPEKYSGLIVRVAGYSALFTTLSKSLQDDIIKRTEQADNR
# Columns and labels:
# P5C reductase = P5C reductase (Clostridioides difficile, UniProt Q180C5); test: spectrophotometric assay; assay type: biochemical; conditions: mere turnover
# purified protein [1] = substrate: O=C(O)[C@@H]1C[C@@H](O)CN1; test: purified protein; assay type: biochemical, Clostridioides difficile; conditions: activated by t4LHypD-AE, SAM, acriflavine; anaerobic
# purified protein [2] = substrate: C[C@@H](O)CO; test: purified protein; conditions: activated by PD-AE, SAM, 5-deazariboflavin; anaerobic
# purified protein [3] = substrate: C[C@H](O)CO; test: purified protein; conditions: activated by PD-AE, SAM, 5-deazariboflavin; anaerobic
molecule,measurement,setting,value
O=C(O)[C@@H]1CCCN1 [L-proline],spectrophotometric assay,P5C reductase; reverse direction (interconversion with P5C),P5C reductase could interconvert P5C and L-proline
O=C(O)[C@@H]1CCC=N1 [Δ^1-pyrroline-5-carboxylate],spectrophotometric assay,P5C reductase; NADH as reductant in the coupled assay,P5C reductase could interconvert P5C and L-proline
B1,Km,purified protein [1],1.2 ± 0.1 mM
same,kcat,purified protein [1],45 ± 1 s⁻¹
B2,Km,purified protein [2],44 ± 4 mM
same,kcat,purified protein [2],330 ± 40 s⁻¹
same,Km,purified protein [3],8 ± 1 mM
same,kcat,purified protein [3],1500 ± 100 s⁻¹

# Reference: PMC5705181 (Science (New York, N.Y.), 2017)
